Source: US20230050773A1 (AstraZeneca / MedImmune, published 2023)
Positions count from the first letter of the chain named.

B1: NB0919 (antibody, V domains shown)
VH: QVQLQESGPGLVKPSDTLSLTCTVSGFSFSTDYWWSWIRQPPGKGLEWIGYIYVGTSGDTYYNPSLKSRVTISVDTSKNQFSLKLSSVTAADTAVYYCAGADNPYDYFNLWGQGTLVTVSS
VL: DIQMTQSPSSLSASVGDRVTITCRASETISGYLNWYQQKPGKAPKLLIYRASSLQSGVPSRFSGSGSGTDFTLTISSLQPEDFATYYCQQGYSYSDTDNVFGGGTKVEIK
notes: Humanized variant of B7 by CDR grafting; also called Clone 919
B2: NB0937 (antibody, V domains shown)
VH: EVQLVESGGGLVQPGGSLRLSCAASGFSFSTDYWMSWVRQAPGKGLEWVSSIYVGTSGDTYYADSVKGRFTISRDNSKNTLYLQMDSLRAEDTAIYYCAGADNPYDYFNLWGQGTLVTVS
VL: B1 VL with L11V, N34A, Q55E, D70E, E81D
notes: Humanized variant of B7 by CDR grafting; also called Clone 937
B3: NB0920 (antibody, V domains shown)
VH: B1 VH
VL: B1 VL with N34A, A43V, S53T, F83V
notes: Humanized variant of B7 by CDR grafting; also called Clone 920
B4: NB0938 (antibody, V domains shown)
VH: B2 VH
VL: B1 VL
notes: Humanized variant of B7 by CDR grafting; also called Clone 938

Biological target: T1, recombinant human LIF (Leukemia Inhibitory Factor) (human, UniProt P15018 23-202)
T1 construct: also called biotinylated recombinant human LIF
T1 sequence (P15018 23-202 limits assumed, form in doubt): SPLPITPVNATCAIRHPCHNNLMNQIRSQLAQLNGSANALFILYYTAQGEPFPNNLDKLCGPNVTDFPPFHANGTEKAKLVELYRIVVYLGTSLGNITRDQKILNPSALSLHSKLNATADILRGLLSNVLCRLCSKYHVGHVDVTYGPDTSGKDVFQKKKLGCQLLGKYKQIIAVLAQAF
Test: BLI (Octet), antibody on anti-human Fc biosensors, human LIF in solution
Description: Affinities were determined using biolayer interferometry on the Octet platform. Anti-human Fc biosensors were used to load chimeric B7 and humanized variants, and titrations of recombinant human LIF (200 nM→0 nM) were associated for 180 seconds followed by a 300 second dissociation step. Affinity measurements are recorded in Table 3.

Binder | Kd
B1 | 19.6 nM
B2 | 5.02 nM
B3 | 9.97 nM
B4 | 10.6 nM

Biological target: T1, recombinant human LIF (Leukemia …)
Test: LIF:LIFR blocking ELISA, coated human LIFR, biotinylated human LIF premixed with antibody
Description: Recombinant human LIFR was coated on maxisorp plates overnight at 4 C. The next day, plates were blocked with casein blocking buffer for 1 hr at 37 C. During this period, titrations of each antibody were mixed with biotinylated recombinant human LIF. Following blocking, the antibody/antigen premix was added to the plates and allowed to incubate for 1 hr at RT. Plates were then washed with 4×PBST and an HRP conjugated avidin secondary reagent was added for 30 min at room temperature. Plates were washed again with 4×PBST and then developed using TMB substrate and 1M HCl.

Binder | IC50
B2 | 16.6 nM
B4 | 24.4 nM

Biological target: T1, recombinant human LIF (Leukemia …)
Test: cell-based or functional assay

Binder | pSTAT3 inhibition assay IC50 (nM)
B1 | 52.7 nM
B2 | 7.22 nM
B3 | 38.7 nM
B4 | 11 nM

Biological target: T1, recombinant human LIF (Leukemia …)
Test: ELISA, coated recombinant human LIF, anti-human Fc HRP detection
Description: Recombinant human LIF was coated on maxisorp plates overnight at 4° C. The next day, plates were blocked with casein blocking buffer for 1 hour at 37° C. Titrations of each antibody were added to the plates and allowed to bind for 1 hour at room temperature. Plates were washed 4× with PBST followed by incubation with an HRP conjugated anti-human Fc secondary for 30 minutes at RT. Plates were then washed again with 4×PBST and then developed using TMB substrate and 1M HCl.

Binder | EC50
B1 | 0.17 nM
B2 | 0.08 nM
B3 | 0.12 nM
B4 | 0.13 nM
